Molecular target: MUC1 (TA-Muc1) on the human tumor cell line ZR-75-1 (human) (UniProt P15941)
Test: Scatchard analysis, 111In-labelled antibody on ZR-75-1 cells

Row | Kd [nM] | Substance
1 | 7.8 | PankoMab expressed in CHO (antibody)
2 | 3.33 | PankoMab expressed in GT-5s (antibody)

— patent publication US20130209458A1
